Measurements reported in US6472171.

Target: human α2(I) procollagen (human) (UniProt P08123)
Experiment: cell-based or functional assay

Chain of human α2(I) procollagen (human) (P08123 23-1366 limits assumed): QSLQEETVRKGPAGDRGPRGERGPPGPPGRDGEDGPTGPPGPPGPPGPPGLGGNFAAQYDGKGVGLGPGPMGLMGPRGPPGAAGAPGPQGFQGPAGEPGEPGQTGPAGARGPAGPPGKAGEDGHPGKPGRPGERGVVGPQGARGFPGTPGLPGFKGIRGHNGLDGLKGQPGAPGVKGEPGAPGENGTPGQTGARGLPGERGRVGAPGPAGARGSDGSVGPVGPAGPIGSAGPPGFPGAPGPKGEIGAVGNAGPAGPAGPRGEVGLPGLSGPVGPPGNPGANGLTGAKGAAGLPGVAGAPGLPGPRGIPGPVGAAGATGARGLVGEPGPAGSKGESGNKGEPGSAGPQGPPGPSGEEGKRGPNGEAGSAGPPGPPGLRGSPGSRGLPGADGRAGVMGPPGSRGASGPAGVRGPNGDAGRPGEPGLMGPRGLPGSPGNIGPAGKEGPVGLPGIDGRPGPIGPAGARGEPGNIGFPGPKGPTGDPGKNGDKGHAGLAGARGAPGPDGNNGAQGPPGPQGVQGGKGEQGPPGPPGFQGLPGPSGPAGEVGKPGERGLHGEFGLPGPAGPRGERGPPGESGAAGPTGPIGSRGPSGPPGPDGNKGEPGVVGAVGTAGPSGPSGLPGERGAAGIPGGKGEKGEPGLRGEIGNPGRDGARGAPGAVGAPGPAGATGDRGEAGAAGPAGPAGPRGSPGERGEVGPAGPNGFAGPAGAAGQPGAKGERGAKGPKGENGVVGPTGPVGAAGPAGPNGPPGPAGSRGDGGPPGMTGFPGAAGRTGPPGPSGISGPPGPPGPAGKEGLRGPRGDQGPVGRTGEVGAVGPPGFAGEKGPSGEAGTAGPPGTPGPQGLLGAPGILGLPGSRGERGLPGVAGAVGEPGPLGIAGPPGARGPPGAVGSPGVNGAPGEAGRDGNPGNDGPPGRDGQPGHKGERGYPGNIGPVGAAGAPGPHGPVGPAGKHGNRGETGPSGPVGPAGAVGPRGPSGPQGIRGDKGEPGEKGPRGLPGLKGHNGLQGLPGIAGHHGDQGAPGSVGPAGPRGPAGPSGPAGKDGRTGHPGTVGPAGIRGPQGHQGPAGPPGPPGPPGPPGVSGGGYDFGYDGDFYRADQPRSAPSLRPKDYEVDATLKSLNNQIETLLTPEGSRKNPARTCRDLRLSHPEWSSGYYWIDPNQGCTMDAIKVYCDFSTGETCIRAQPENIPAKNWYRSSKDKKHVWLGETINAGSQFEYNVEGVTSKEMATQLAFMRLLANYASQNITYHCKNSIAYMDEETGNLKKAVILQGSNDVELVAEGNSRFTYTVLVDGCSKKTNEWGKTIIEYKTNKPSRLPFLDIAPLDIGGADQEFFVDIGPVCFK

resistance to pepsin digestion at increasing temperatures (SDS-PAGE): 38 ° C.
Substance: human α1(I) procollagen (from UniProt P02452 23-1464)
